# Measurements from patent US20260217864A1 (JANUX THERAPEUTICS, published 2026).
# Substitutions are numbered along the chain they refer to. Read-outs that look alike come from different tables or passages of the source.
# B1: TCE-76 (bispecific antibody)
# light: not shown
# heavy: QVQLVQSGAEVKKPGASVKVSCKASGYTFSTYWIEWVRQAPGQRLEWMGEILPGSGQTDFNEKFQGRVTFTADTSSDTAYMELSSLRSEDTAVYYCTRWGYYGTRGYFNVWGQGTLVTVSSASTKGPSVFPLAPSSKSTSGGTAALGCLVKDYFPEPVTVSWNSGALTSGVHTFPAVLQSSGLYSLSSVVTVPSSSLGTQTYICNVNHKPSNTKVDKKVEPKSC
# B2: TCE-69 (bispecific antibody)
# light: DIQMTQSPSSLSASVGDRVTITCKSSQSLLYRSNQKNYLAWYQQKPGKAPKLLIYWASTRESGVPSRFSGSGSGTDFTLTISSLQPEDFATYYCQQYYNYPRTFGQGTKVEIKRTVAAPSVFIFPPSDRKLKSGTASVVCLLNNFYPREAKVQWKVDNALQSGNSQESVTEQDSKDSTYSLSSTLTLSKADYEKHKVYACEVTHQGLSSPVTKSFNRGEC
# chain: not shown
# heavy: not shown
# B3: TCE-90 (bispecific antibody)
# light: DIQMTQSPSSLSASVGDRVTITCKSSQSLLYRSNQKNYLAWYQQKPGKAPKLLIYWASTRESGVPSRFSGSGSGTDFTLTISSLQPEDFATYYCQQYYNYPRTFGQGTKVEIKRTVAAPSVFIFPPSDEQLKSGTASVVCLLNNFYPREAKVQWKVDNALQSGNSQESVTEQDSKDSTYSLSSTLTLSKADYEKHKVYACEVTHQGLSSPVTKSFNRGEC
# heavy 1: EVQLVESGGGLVQPGGSLRLSCAVSGYSITSDYAWNWVRQAPGKGLEWVGYISNSGSTSYNPSLKSRFTISRDTSKNTLYLQMNSLRAEDTAVYYCARERNYDYDDYYYAMDYWGQGTLVTVSSASTKGPSVFPLAPSSKSTSGGTAALGCLVKDYFPEPVTVSWNSGALTSGVHTFPAVLQSSGLYSLSSVVTVPSSSLGTQTYICNVNHKPSNTKVDKKVEPKSCDKTHTCPPCPAPELLGG
# chain: not shown
# heavy 2: not shown
# B4: TCE-93 (bispecific antibody)
# light: EIVLTQSPATLSLSPGERATLSCRASSSVSYMHWFQQKPGQAPRLLIYSTSNLASGIPARFSGSGSGTDYTLTISSLEPEDFAVYYCQQRRSFPYTFGQGTKLEIKRTVAAPSVFIFPPSDEQLKSGTASVVCLLNNFYPREAKVQWKVDNALQSGNSQESVTEQDSKDSTYSLSSTLTLSKADYEKHKVYACEVTHQGLSSPVTKSFNRGEC
# heavy 1: QVQLVQSGAEVKKPGASVKVSCKASGYTFSTYWIEWVRQAPGQRLEWMGEILPGSGQTDFNEKFQGRVTFTADTSSDTAYMELSSLRSEDTAVYYCTRWGYYGTRGYFNVWGQGTLVTVSSASTKGPSVFPLAPSSKSTSGGTAALGCLVKDYFPEPVTVSWNSGALTSGVHTFPAVLQSSGLYSLSSVVTVPSSSLGTQTYICNVNHKPSDTKVDKKVEPKSCDKTHTCPPCPAPPVAGPSVFLFPPKPKDTLMISRTPEVTCVVVDVKHEDPEVKFNWYVDGVEVHNAKTKPCEEEYGSTYRCVSVLTVLHQDWLNGKEYKCKVSNKALPAPIEKTISKAKGQPREPQVYTLPPSREEMTKNQVSLTCDVSGFYPSDIAVEWESDGQPENNYKTTPPVLDSDGSFFLYSKLTVDKSRWEQGDVFSCSVMHEALHNHYTQKSLSLSPGK
# heavy 2: QVQLVQSGAEVKKPGASVKVSCKASGYTFSTYWIEWVRQAPGQRLEWMGEILPGSGQTDFNEKFQGRVTFTADTSSDTAYMELSSLRSEDTAVYYCTRWGYYGTRGYFNVWGQGTLVTVSSASTKGPSVFPLAPSSKSTSGGTAALGCLVKDYFPEPVTVSWNSGALTSGVHTFPAVLQSSGLYSLSSVVTVPSSSLGTQTYICNVNHKPSNTKVDKKVEPKSCGGGGSGGGGSEVQLVESGGGLVQPGGSLRLSCAASGFTFSTYAMNWVRQAPGKGLEWVGRIRSKYNNYATYYADSVKGRFTISRDDSKNTLYLQMNSLRAEDTAVYYCVRHGNFGDSYVSWFAYWGQGTLVTVSSGKPGSGKPGSGKPGSGKPGSQAVVTQEPSLTVSPGGTVTLTCGSSTGAVTTSNYANWVQQKPGKSPRGLIGGTNKRAPGVPARFSGSLLGGKAALTISGAQPEDEADYYCALWYSNHWVFGGGTKLTVLGGGGSGGGGSKTHTCPPCPAPPVAGPSVFLFPPKPKDTLMISRTPEVTCVVVDVKHEDPEVKFNWYVDGVEVHNAKTKPCEEQYGSTYRCVSVLTVLHQDWLNGKEYKCKVSNKALPAPIEKTISKAKGQPREPQVYTLPPSREQMTKNQVKLTCLVKGFYPSDIAVEWESNGQPENNYKTTPPVLDSDGSFFLYSKLTVDKSRWQQGNVFSCSVMHEALHNHYTQKSLSLSPGK
# B5: TCE-75 (bispecific antibody)
# light: B4 light
# heavy: not shown
# B6: TCE-26 (bispecific antibody)
# light: not shown
# heavy: EVQLVESGGGLVQPGGSLRLSCAVSGYSITSDYAWNWVRQAPGKGLEWVGYISNSGSTSYNPSLKSRFTISRDTSKNTLYLQMNSLRAEDTAVYYCARERNYDYDDYYYAMDYWGQGTLVTVSSASTKGPSVFPLAPSSKSTSGGTAALGCLVKDYFPEPVTVSWNSGALTSGVHTFPAVLQSSGLYSLSSVVTVPSSSLGTQTYICNVNHKPSNTKVDKKVEPKSC
# B7: TCE-4 (bispecific antibody)
# light: not shown
# heavy: B6 heavy with V24A, Y27F, T58I, T74N
# B8: TCE-58 (bispecific antibody)
# light: not shown
# heavy: B6 heavy
# B9: TCE-82 (bispecific antibody)
# light: not shown
# heavy: B6 heavy
# B10: TCE-89 (bispecific antibody)
# light: not shown
# heavy: B6 heavy
# B11: TCE-83 (bispecific antibody)
# light: not shown
# heavy: B6 heavy
# B12: TCE-84 (bispecific antibody)
# light: not shown
# heavy: B6 heavy
# B13: TCE-88 (bispecific antibody)
# light: not shown
# heavy: B6 heavy
# B14: TCE-81 (bispecific antibody)
# light: not shown
# heavy: B6 heavy
# B15: TCE-79 (bispecific antibody)
# light: not shown
# heavy: B6 heavy
# B16: TCE-80 (bispecific antibody)
# light: not shown
# heavy: B6 heavy
# B17: TCE-87 (bispecific antibody)
# light: not shown
# heavy: B6 heavy
# B18: TCE-55 (bispecific antibody)
# light: not shown
# heavy: B6 heavy
# B19: TCE-85 (bispecific antibody)
# light: not shown
# heavy: B6 heavy
# B20: TCE-86 (bispecific antibody)
# light: not shown
# heavy: B6 heavy
# Columns and labels:
# Assay in all cases: cell-based or functional assay
# [1] = target: T1, six-transmembrane epithelial antigen of the prostate-1 (STEAP-1) (UniProt Q9UHE8 1-339, limits assumed)
# [2] = target: T1, six-transmembrane epithelial antigen of …; remark: listed apart in the source
# [3] = target: T1, six-transmembrane epithelial antigen of …; remark: listed apart in the source
# [4] = target: T1, six-transmembrane epithelial antigen of …; remark: listed apart in the source
# [5] = target: T1, six-transmembrane epithelial antigen of …; remark: listed apart in the source
# [6] = target: T1, six-transmembrane epithelial antigen of …; remark: listed apart in the source
# T1 sequence (Q9UHE8 whole entry): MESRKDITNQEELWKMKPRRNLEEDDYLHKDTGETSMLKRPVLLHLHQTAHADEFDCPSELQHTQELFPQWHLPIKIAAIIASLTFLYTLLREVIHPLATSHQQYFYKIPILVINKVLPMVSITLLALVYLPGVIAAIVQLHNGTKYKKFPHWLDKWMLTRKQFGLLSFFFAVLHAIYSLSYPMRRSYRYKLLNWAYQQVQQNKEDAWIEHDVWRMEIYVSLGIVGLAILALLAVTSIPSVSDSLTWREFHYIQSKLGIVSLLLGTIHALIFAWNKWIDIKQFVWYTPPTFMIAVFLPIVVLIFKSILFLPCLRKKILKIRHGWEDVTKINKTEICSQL
Binder,"Cell line cytotoxicity EC50 (pM), LNCaP [1] [pM]","Cell line cytotoxicity EC50 (pM), LNCaP [2] [pM]","EC50/pM, LNCaP tumor cell killing [3] [pM]",further results
B1,7.9,–,–,–
B2,89.1,–,–,"Cell line cytotoxicity EC50 (pM), 22RV1 [1]: 359 pM; Cell line cytotoxicity EC50 (pM), IM-95 [1]: 11.2 pM"
B3,–,68.5,–,"Cell line cytotoxicity EC50 (pM), 22RV1 [2]: 171 pM; Cell line cytotoxicity EC50 (pM), A673 [2]: 17.3 pM; Cell line cytotoxicity EC50 (pM), IM-95 [2]: 11.6 pM"
B4,–,0.2,–,"Cell line cytotoxicity EC50 (pM), 22RV1 [2]: 23.2 pM; Cell line cytotoxicity EC50 (pM), A673 [2]: 0.9 pM; Cell line cytotoxicity EC50 (pM), C4-2B [2]: 0.4 pM; Cell line cytotoxicity EC50 (pM), IM-95 [2]: 3.6 pM; Cell line cytotoxicity EC50 (pM), VCaP [2]: 1.2 pM"
B5,5.2,–,–,–
B6,–,585,585,"Cell line cytotoxicity EC50 (pM), 22RV1 [2]: 2100 pM; Cell line cytotoxicity EC50 (pM), A673 [2]: 45.8 pM; Cell line cytotoxicity EC50 (pM), C4-2B [2]: 1150 pM; Cell line cytotoxicity EC50 (pM), IM-95 [2]: 147 pM"
B7,2220,–,–,"IC50 (pM), LNCaP tumor cell killing in the presence of CD8+ T cells [4]: 1710 pM; IC50 (pM), VCaP tumor cell killing in the presence of CD8+ T cells [5]: > 10000 pM; IC50 (pM), 22Rv1 tumor cell killing in the presence of CD8+ T cells [6]: > 10000 pM; Cell line cytotoxicity EC50 (pM), 22RV1 [1]: > 10000 pM; Cell line cytotoxicity EC50 (pM), IM-95 [1]: 648 pM; Cell line cytotoxicity EC50 (pM), VCaP [1]: > 10000 pM"
B8,44.5,–,45,"Cell line cytotoxicity EC50 (pM), 22RV1 [1]: 332 pM"
B9,–,214,214,–
B10,–,123,123,–
B11,–,209,209,–
B12,–,192,192,–
B13,–,183,183,–
B14,–,239,239,–
B15,–,163,163,–
B16,–,260,260,–
B17,–,235,235,–
B18,1310,–,1310,–
B19,–,360,361,–
B20,–,232,233,–
